The test system of the series is DosR (His6-DosR, pre-phosphorylated with acetyl phosphate) (Mycobacterium tuberculosis). The series is described as follows: EMSA. Background: A gel shift assay detects complexes by their altered migration in electrophoresis.

On to hspX promoter probe, for which the binding signal (fold inhibition of binding vs DMSO) was 22.

(Values after article PMC6970277.)
